The source of these data is a protein production outcome set (Wang et al. 2014).

This data set can be described thus: label from the status in PepcDB records.
Take “RKTEKVVNNGIPWFDDRGEIVNAHGACIVEENGRYYLFGEYKSDKSNAFPGFSCYSSDDLVNWKFERVVLPMQSSGILGPDRVGERVKVMKCPSTGEYVMYMHADDMNYKDPHIGYATCSTIAGEYKLHGPLLYEGKPIRRWDMGTYQDTDGTGYLLLHGGIVYRLSKDYRTAEEKVVSGVGGSHGESPAMFKKDGTYFFLFSNLTSWEKNDNFYFTAPSVKGPWTRQGLFAPEGSLTYNSQTTFVFPLKCGEDTIPMFMGDRWSYPHQASAATYVWMPMQVDGTKLSIPEYWPSWDVDKLKPVNPLRKGKTVDLKKITFSKEADWKVEEGRISSNVKGSTLSIPFTGSCVAVMGETNCHSGYARMNILDKKGEKIYSSLVDFYSKANDHATRFKTPQLAEGEYTLVIEVTGISPTWTDKTKRIYGSDDCFVTITDIVKL”: the protein production entry was “not failed”.

In the case of “RNRFKWGPASQQILYQAYDRQKNPSKEEREALVEECNRAECLQRGVSPSKAHGLGSNLVTEVRVYNWFANRRKEEAFRQKLAMDAYSSN”, the protein production entry is “not failed”. Turning to “RPKTGFQMWLEENRSNILSDNPDFSDEADIIKEGMIRFRVLSTEERKVWANKAKGETASEGTEAKKRK”, the protein production result is given as “not failed”. As to “RQKLLADFGEFALSNDNLADILTEACRLVGNALGTQRANVLEIEPSKRSLFVRAGVGLDDGIVGKLRLPMREIASERFSPDGSPLDIIHDVHTEPQYDLAAFMEVAGVVALVNVPILLPGRTLYGLLQVESSEPREFSQDDVEFLRTYSTILGPVIDRLNKVRALRDAEERFRLIVEAAR”, the protein production entry is reported as “failed”. For “RQQSMAERHDYDQKEEKTDGGELVSSYMCSPETAAEEFEISKKLYAQLTGRSQSEKHDIIMYRIIQSFKPDEVSPEEAHKIGCELAMKFTGGQHQFVVATHTDKRHIHTHIEFNSTNLNCDAKFQNVKNSAFILRRMNDELCRAHGLSVIENPKKKARPQKEMAAAQYGVSHKKQLQQAIDRLLPECNHYEEFLAKMRAEGYEVVDGKNPGFRLPGWDRPTRVNRLG”, the protein production result was “not failed”. As for “RRRAPLARLRQAIQRCEFFVCYQPIVSLSDGRCVGAEALVRWRQQDGTLILPDQFIPLAERSGLILPITDQVIAASMRELGPLLVADRSLHIAINVSVKDIESGRLLDVLALALQDTGLYRKQLWIEATERSFMDARAAREHIVRLREAGYAVVIDDFGTGYSNLQYLQQLPLDALKIDKSFIDTVGRDVTNTAVASHIIDIAKELGMRTIAEGVEREEQLVYLRARGVDMAQGWLFSSPLSVAEFVDYLSHNRSMHPDD”, the protein production result is “failed”.

As to “RSPPSNLALASETPDSLQVSWTPPLGRVLHYWLTYAPASGLGPEKSVSVPGARSHVTLPDLQAATKYRVLVSAIYAAGRSEAVSATGQTACP”, the protein production entry is listed as “not failed”.

In the case of “RTAVMIMNGNQLVGFFCLHVGQGPLSYGETEVNTILLRALSVDDRFKHQRVASDALAELPRYLASHYPMIQTILLAVNHANHVAQHLY”, the protein production entry was “failed”. Turning to “RTDVIVVGVLDWKKGNLSFVSIPRDLMIEGKKINAIYNTYGMEKLFQIIESLLGQKPDSYVIFNYEAFKILVDELGPIEVIPNEVMFYEDLSQNLVIDFKPGVPYKLNGEQLLAYIRYRKDSMGDLARIERQKDVLKKLLSKALS”, the protein production result is given as “failed”. “RTEAGDAYYSKFANNTPLPALMVSRKKFGSSYVYDKSYKTWDVPIAEQMEQKAKINIFAVAEYTDTQKIKVTVKGKILEGNTLPKSMVQVYLLEDKLIAPQVDGNTTVENYEHNHVLRGAVNGIWGEEFVNLKDYLYTYAVEPLSGMSFVAENYSIVAFVYDVQTFEVYDVVHVKINPQSDGK”: the protein production entry is recorded as “not failed”.

As for “RTFAVAAVAALVLPLSACGSGGDGGSSTDASGKVEGDITFQTWNLRANFKDYFEGLIADFEKKYPDTHVKWVDQPGEGYADKISADAAGGTLPDVVNVSPDLVAPLAKAGLALDLDKAAGQYEKEYLEGAWASHRIPGMDGTYAFPWYLNTGPLFYNKSLFEKAGLDPEQPPRTYDEVFDAALKIADKTDGEVATLANVPTIEDFGRYGVPLMNKEGTAFAFNDAKGVQLLARYKELYDAKALDPQALTATPESSGKKFLTGAVAMNPGSALDLANFKKQAPNLYENIGITDQITSTGHVNMYVMGLMVNAQSQRKPAAVAFAHYVTDAAHQMSFAKQVAIFPSTAGSLDDPYFTKEDGTDETRVRVAAAKSLKTAVNYTPVLFSEQMKTELRNEVAKALQGKQSPKEALDNAVKACDRLLQ”, the protein production entry is “failed”. Consider “RTKDQYYELRDFALGTSVRIVVSSQKINPRTIAEAILEDMKRITYKFSFTDERSVVKKINDHPNEWVEVDEETYSLIKAACAFAELTDGAFDPTVGRLLELWGFTGNYENLRVPSREEIEEALKHTGYKNVLFDDKNMRVMVKNGVKIDLGGIAKGYALDRARQIALSFDENATGFVEAGGDVRIIGPKFGKYPWVIGVKDPRGDDVIDYIYLKSGAVATSGDYERYFVVDGVRYHHILDPSTGYPARGVWSVTIIAEDATTADALSTAGFVMAGKDWRKVVLDFPNMGAHLLIVLEGGAIERSETFKLFERE”, for which the protein production result is “not failed”. “RVLEFHPLGSGLAMTEFVVGSRLMGKTLSDLALCKVEGVQVLGFKRGPEIIKAPDMSTTLEIGDLIIVVGPQDKLANKLKSL”: the protein production entry is recorded as “failed”. For “RYSDAHLHYVDFFQESEGMPALIKAMDAAGVEQSMISGIPVAKKWHEDEPKRPRYYAGDDADAYWYSATDTYVAAALQQLPSDQRKRFHPFLSGFNPVDKNAVSHIERMLDLYPGLWQGIGEVFTRHDDLTALTSGDTPRANNEAMTRIYHLAAERDLPVLLHSNITSKRERNPLYLAEIEEPLRNHPHTRFIWAHAGSSMEIHRHQKQMDFLLPVLTRLLEDYPNLYVDLSWSVLQPYLLDEQGAPRKEWLALVEKYPERFMLGSDVVGRFGSLGEQMHGFKPFLDALPESVAHKVARENFLAVLPKAR”, the protein production entry was “failed”. Next, “SAELGLNEHHQNEVINYMRFARSKRGLRLKTVDSCFQDLKESRLVEDTFTIDEVSEVLNGLQAVVHSEVESELINTAYTNVLLLRQLFAQAEKWYLKLQTDISELENRELLEQVAEFEKAEITSSNKKPILDVTKPKLAPLNEGGTAELLNKEILRLQEENEKLKSRLKTIEIQATNALDEKSKLEKALQDLQLDQGNQKDFIKAQDLSNLENTVAALKSEFQKTLNDKTENQKSLEENLATAKHDLLRVQEQLHMAEKELEKKFQQTAAYRNMKEILTKKNDQIKDLRKRLAQYEPED”: “not failed”; “SAGTGVVAVYGEGAMTETKQKSPFSVKVGLAQMLRGGVIMDVVNAEQARIAEEAGACAVMALERVPADIRAQGGVARMSDPEMIKEIKNAVTIPVMAKARIGHFVEAQILEAIGVDYVDESEVLTLADEDNHINKHNFKIPFVCGCRNLGEALRRIREGAAMIRTKGEAGTGNVVEAVRHVRSVNGAIRLLRSMDDDEVFTYAKKIAAPYDLVVQTKELGRLPVVQFAAGGVATPADAALMMQLGCDGVFVGSGVFKSGDPVKRAKAIVQAVTNYRDAAVLAEVSCGLGEAMVGLNLDDKVERFASRSE”: “not failed”. Consider “SATHGQTCARPMCIPPSYADLGKAARDIFNKGFGFGLVKLDVKTKSCSGVEFSTSGSSNTDTGKVTGTLETKYKWCEYGLTFTEKWNTDNTLGTEIAIEDQICQGLKLTFDTTFSPNTGKKSGKIKSSYKRECINLGCDVDFDFAGPAIHGSAVFGYEGWLAGYQMTFDSAKSKLTRNNFAVGYRTGDFQLHTNVNDGTEFGGSIYQKVCEDLDTSVNLAWTSGTNCTRFGIAAKYQLDPTASISAKVNNSSLIGVGYTQTLRPGVKLTLSALVDGKSINAGGHKVGLALELEA”, for which the protein production entry is “not failed”. Next, “SAVLVALSLAGLPTDRFFFDGFLPSKQGARRARLGELAAIDATLVLFEAGSRIQNSVHDLADLLGATREAAICRELTKLHQEVRRATLAELAAQADTMETRGEFVVVIAP”: “failed”.
